Earlier results as cited in article PMC6661118.
Read-outs that look alike come from different tables or passages of the source.

How the values were obtained:
MDM2 (Homo sapiens) [1] = target: MDM2 (Homo sapiens) (UniProt Q00987)
MDM2 (Homo sapiens) [2] = target: MDM2 (Homo sapiens) (UniProt Q00987); remark: listed apart in the source

MDM2 (Homo sapiens), sequence (Q00987 whole entry): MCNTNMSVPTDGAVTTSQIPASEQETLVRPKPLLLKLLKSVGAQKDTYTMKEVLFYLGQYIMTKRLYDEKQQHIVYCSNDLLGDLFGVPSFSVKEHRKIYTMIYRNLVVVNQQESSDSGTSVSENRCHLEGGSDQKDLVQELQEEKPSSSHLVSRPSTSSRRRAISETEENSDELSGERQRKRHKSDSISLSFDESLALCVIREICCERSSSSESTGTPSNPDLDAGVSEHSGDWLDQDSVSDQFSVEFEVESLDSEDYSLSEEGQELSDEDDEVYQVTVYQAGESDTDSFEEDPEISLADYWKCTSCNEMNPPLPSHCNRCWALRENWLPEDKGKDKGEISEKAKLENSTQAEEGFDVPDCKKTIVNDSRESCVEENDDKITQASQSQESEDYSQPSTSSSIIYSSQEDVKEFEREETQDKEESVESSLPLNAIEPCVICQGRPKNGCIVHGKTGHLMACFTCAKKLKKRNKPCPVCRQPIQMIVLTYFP

For p53 (from UniProt P04637), the Kd (MDM2 (Homo sapiens) [1]) is listed as 410 nM.
In the case of p53-SAH-8 (from UniProt P04637), the Kd (MDM2 (Homo sapiens) [2]) is listed as 55 nM.
